Results reported in patent US20260274955A1 (JANUX THERAPEUTICS, published 2026).

Key:
[1] = target: Anti-CD28 Fab (SEQ ID NOs: 202, 203); assay: phage binding ELISA on captured Fab;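 further: clonal phage supernatants added briefly to wells pre-incubated with CD28 antigen or with blocking buffer only, then washed, bound phage read by ELISA using HRP-coupled anti-M13 antibody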
Experimental: (§1) Clonal phage were harvested as crude supernatants and screened via standard ELISAs. […] Prior to the addition of clonal phage, wells were incubated with blocking buffer and CD28 antigen or blocking buffer alone. Without washing or aspirating, clonal phage supernatants were then added to the wells and incubated for a short time. Wells were then washed followed by detection of bound phage using a horse radish conjugated anti-M13 antibody.

[2] = target: Anti-CD28 Fab (SEQ ID NOs: 202, 203); assay: phage binding ELISA on captured Fab; competitor CD28 antigen;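 on Anti-CD28 Fab signal in the presence of CD28: wells pretreated with CD28 antigen in blocking buffer or buffer only, then clonal phage supernatants added briefly without washing, bound phage detected via horseradish-conjugated anti-M13 antibody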
Experimental: as §1

[3] = target: anti-CD28 Fab (SEQ ID NOs: 202, 203); assay: phage ELISA, Fab on plate;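 further: ELISA of crude clonal phage supernatants on the plate, wells preloaded with CD28 antigen or only blocking buffer, captured phage read out via HRP-linked anti-M13 antibody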
Chain of anti-CD28 Fab (SEQ ID NOs: 202, 203) (VH, as listed by the source, chain 1 of 2): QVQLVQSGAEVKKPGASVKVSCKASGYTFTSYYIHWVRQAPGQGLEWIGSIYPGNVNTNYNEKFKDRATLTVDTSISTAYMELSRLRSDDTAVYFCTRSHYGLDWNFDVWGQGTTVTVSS
Chain of anti-CD28 Fab (SEQ ID NOs: 202, 203) (VL, as listed by the source, chain 2 of 2): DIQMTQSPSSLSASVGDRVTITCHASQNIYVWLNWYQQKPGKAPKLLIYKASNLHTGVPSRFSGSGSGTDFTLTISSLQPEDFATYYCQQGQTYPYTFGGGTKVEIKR
Experimental: (§2) After panning, phage infected bacteria were plated out and colonies picked into 96 well blocks. Clonal phage was then amplified and separated from bacterial cells via centrifugation.
(§3) Clonal phage were harvested as crude supernatants and screened via standard ELISAs. […] Prior to the addition of clonal phage, wells were incubated with blocking buffer and CD28 antigen or blocking buffer alone. Without washing or aspirating, clonal phage supernatants were then added to the wells and incubated for a short time. Wells were then washed followed by detection of bound phage using a horse radish conjugated anti-M13 antibody. Clonal phage of interest were then sent for sequence analysis.

[4] = target: anti-CD28 Fab (SEQ ID NOs: 202, 203); assay: phage ELISA, Fab on plate, CD28 antigen as competitor;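 further: wells pre-incubated with CD28 antigen in blocking buffer (reference: blocking buffer only) before adding crude clonal phage supernatant, bound phage read with HRP-coupled anti-M13 antibody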
Experimental: as §2, §3

Chain of Anti-CD28 Fab (SEQ ID NOs: 202, 203) (VH, as listed by the source, chain 1 of 2): as the sequence (VH, as listed by the source, chain 1 of 2) above
Chain of Anti-CD28 Fab (SEQ ID NOs: 202, 203) (VL, as listed by the source, chain 2 of 2): as the sequence (VL, as listed by the source, chain 2 of 2) above

Binder | Anti-CD28 Fab signal [1] | Anti-CD28 Fab signal in the presence of CD28 [2] | Anti-CD28 Fab signal [3] | Anti-CD28 Fab signal in the presence of CD28 [4]
YCDGHEPQYMLKCL [Phage-88] | 2.32 | 0.12 | – | –
YCAGHMPEYMAKCL [Phage-65] | 2.38 | 0.11 | – | –
YCWSHSPPFIKKCY [Phage-39] | 2.06 | 0.06 | – | –
ICAAGFIWSWPACF [Phage-1101] | – | – | 1.51 | 0.08
YCEGHLPEYLEKCV [Phage-41] | 2.11 | 0.06 | – | –
SCAAGAHYKWPVCI [Phage-1100] | – | – | 1.51 | 0.06
YCDGHSPQYIEKCL [Phage-92] | 2.31 | 0.07 | – | –
YCEGHTMEYMWKCL [Phage-90] | 2.31 | 0.07 | – | –
YCDGHIEEYRAKCL [Phage-145] | 2.21 | 0.07 | – | –
YCDGHSWEYIGKCL [Phage-70] | 2.37 | 0.07 | – | –
YCEGHSQENIWKCL [Phage-32] | 1.41 | 0.07 | – | –
YCEGHSSEYIQKCL [Phage-37] | 2.25 | 0.1 | – | –
YCAGHSPEHMWKCL [Phage-98] | 2.3 | 0.06 | – | –
HCSGHHWLQVWKCF [Phage-38] | 2.31 | 0.07 | – | –
YCEGHTVEYMAKCL [Phage-149] | 2.2 | 0.08 | – | –
YCEGHTAEYMQKCL [Phage-67] | 2.38 | 0.08 | – | –
YCEGHSQEYLWKCL [Phage-36] | 2.36 | 0.07 | – | –
YCEGHSEEYISKCL [Phage-99] | 2.3 | 0.08 | – | –
YCEGHAAEYMAKCL [Phage-63] | 2.38 | 0.08 | – | –
YCDGHLPIYMAKCL [Phage-100] | 2.3 | 0.14 | – | –

Binder | Anti-CD28 Fab signal [1] | Anti-CD28 Fab signal in the presence of CD28 [2] | Anti-CD28 Fab signal [3] | Anti-CD28 Fab signal in the presence of CD28 [4]
YCEGHSPQYMWKCL [Phage-142] | 2.22 | 0.12 | – | –
YCEGHSPEYMSKCL [Phage-89] | 2.31 | 0.07 | – | –
YCEGHAAEYMTKCL [Phage-143] | 2.22 | 0.08 | – | –
YCEGHAPEYMLKCL [Phage-146] | 2.21 | 0.07 | – | –
YCEGHLPQYMKKCL [Phage-144] | 2.22 | 0.1 | – | –
YCDGHLDEYMAKCL [Phage-94] | 2.31 | 0.08 | – | –
YCAGHLPQYMSKCL [Phage-72] | 2.37 | 0.11 | – | –
YCDGHLPEYMSKCM [Phage-66] | 2.38 | 0.14 | – | –
YCEGHLPLYMWKCL [Phage-96] | 2.3 | 0.07 | – | –
YCDGHLPEYLAKCL [Phage-64] | 2.38 | 0.11 | – | –
YCMGHAPEYMAKCL [Phage-68] | 2.38 | 0.09 | – | –
YCDGHLPIYMSQCL [Phage-73] | 2.36 | 0.12 | – | –
YCDGHLPEYQEKCL [Phage-71] | 2.37 | 0.1 | – | –
TCSAGATYSWPSCF [Phage-1187] | – | – | 1.21 | 0.09
TCSAGATYTWPSCF [Phage-1125] | – | – | 1.42 | 0.06
TCAAGATYSWPDCF [Phage-1102] | – | – | 1.51 | 0.06
YCDGHTLEYMWKCL [Phage-95] | 2.31 | 0.13 | – | –
YCDGHRGEYLQKCL [Phage-141] | 2.22 | 0.09 | – | –
YCDGHAPEYMEKCM [Phage-148] | 2.21 | 0.07 | – | –
YCAGHLPEYMPHCI [Phage-91] | 2.31 | 0.09 | – | –
